Test results as given in the DeepSol protein solubility set.

Test: soluble on expression in E. coli; label from the status in PepcDB or PDB records
For “MGSDKIHHHHHHMAAKGKKKNFVLDTNVMLHDYECIEKFEENDIYIPIVSLEELDKFKKGSEQINFNARAFVRRLDEISDQDLFAKGASLGEGLGRIFVKINGQYHTKVKEAFGENKADHRILSIAMTLADEQPNIKTILVTKDVNLRMKARSLGMLVEDYINDKVTRVDLFENAEPEYEGVDGDLIDRIYASKDGIDIDEWELGSKIDPNDCFVMKSERNSVLARYNPFTGKIVRVEKGHYFGIQPRNAEQTFAMHILTDPNVKLIGLTGKAGTGKTLLALAAALSQEQSYKQILLARPIVSLANKDLGFLPGDEKAKVAPYMQPLFDNLNVIKGQLAQNSSELRRLDEMQKTEKLVIEALAYIRGRSVSETIFIVDEAQNLTPHEIKTIITRAGEGSKLIFTGDIEQIDSPYLDAQSNGLAYMIERMKGQPLFAHVNLIKGERSELSELASDLL”, the “soluble on expression in E. coli” value was “not soluble”. For “MSSFFPLPPAIGKSTGCGVRDESQSLVVWAIEDYSIPESIDPDMINLKIETAIVKKFNLRSSAVVTTWIFGSAENAWLAKSKVKLWESEFRVSLHKGGDKRARLNMMLADVIYYVWNWKAPTNLAVLTENKEEMEQDPKFFRFRQALENKGFFVAVEHPETLINQETAVEDPPDDSPIPYYPSDNPQKLAFWYKEDSEAYRAKYKQVRGTKRTI”, the “soluble on expression in E. coli” value was “soluble”. For “MGSDKIHHHHHHDKAYTDAESYTKGLHKIYSVWALSGQDGSSSSDISGLDAGNTALLRCWWTLQEQPTDEMKNAWNDAWCTEVNYMTWTTNKVEPIEGVYQRCMYIVALVNEFLKNIPNAPESIDKESYIAQARFNRAFAYYVLMDMFALPPFITEKNYSIEPAPLSREDLFNWIEAELNEIKPNLPSPRSEYGVADQAVASALLARMYLNAEIYTGKARYTECINACNEVIKAGYQLADNYADLFKADNGENPDTKKEIIYPIIFDGDKTQSWGMAAIIIGARGAEDKDVLLAHSGVDQGWAGFRATSNLVHLFDFQNDEEPKASEIQDKRGIFYDKGRSIDITSSVSGTFETEGWSVFKFSNLNSNGQPGKNTLWVDTDFPMFRLGDIYLMYAEAVARGGEGSKASAVEYINALRKRAYGDDKHNISENWLEENNFRNLLDERGRELYWEGIRRTDLVRFDLLTSGSYTWDFKGGINTGVGVNKRYNVYPIPVTDLTVNGNLQQNEGY”, the “soluble on expression in E. coli” value was “not soluble”. With “MGSDKIHHHHHHMSDEKKSTDIDLKNLKAGGFIKERGKDLFTVRLRVPGGRMPVARLKKIAEVAEKYGQGMVHLSVRQSVELININFRDFDAVVAELGEGTQKVASCGARVRVPTACGGCEYNPNGLVDTQKSALEVDEKLFGTSTGHHKFKVGFAGCPFDCPKSATNDVGFQGAIWPVLYADECIGCGLCDKSCTEDAIVMGDDGKPRFIPENCLYCGDCLKVCPSEAWRAEKKGYTVRIGGKWGRRPLVGTLFAEFLPEEQVFDFIAAVLDWYKEKAEGQGRIRLGDVIRAEGPDALLGYLRERFPAAVVDATIPPQRIATQIGKEKRVP” the “soluble on expression in E. coli” value was “not soluble”. For “MGSDKIHHHHHHMSGNESVVNYDHFIDKRRVRKAFERAAPLYDQAAVLQREVCDRMLSRLEYIKYMPDVVLDAGSGTGYGTCKLLERYPDASMLAIDIATGMHHQARQRMNSMIPRWRQLFGVGRNQRTSRVRYVAGDIEQLPLEDSCAGLVWSNLALQWCNDLKKTFDEMRRILKNGGLFMFSTFGPDTLKELRQAFRHADDYSHVNRFADMHDIGDMLVHSGFATPVMDMEYITLTYDEVISVMRDLKAIGAHNATGARHRGLTGKNAWQKAIGHYETLRTGGKLPATFEVVYGHAWKPAPRTSILTPETRRHIGLE”, the “soluble on expression in E. coli” value was “not soluble”. With “MIREAQRSELPAILELWLESTTWGHPFIKANYWRDCIPLVRDAYLANAQNWVWEEDGKLLGFVSIMEGRFLAAMFVAPKAVRRGIGKALMQYVQQRYPHLMLEVYQKNQPAIDFYRAQGFHIVDCAWQDETQLPTWIMSWPVVQTL” the “soluble on expression in E. coli” value was “not soluble”. In the case of “MAVPVQFRKPPMGGIGKKVAYYPGCSLEGAARAYDVSTRIVAKELGLELDYLEDYNCCGAMETKNVSFWGTMLLNARNMSLARRQGHNVIVAPCNGCSFSLQRVEYFLETDKNTLDRINQLLQEAGEKPLDNIPHTYHILEWFYHEAGPEKVKEKTKKPLRGLKVASYYGCLYTRPHFYARTYSHLAPEDEEQARPRKRETADDDEHPYYMEALLEAAGATSVEIEPMHTQCCGGPHSLSDEEVSEKFVMMILQTAKRNGADIIATECPLCHASLEMYRHRLMLKGVPDVDVPAAYFTQLLGLAFGYSVNDVKLKDNLSDPIPVLKRLGLA”, the “soluble on expression in E. coli” value was “not soluble”.
